Source: patent publication CN109678958A (CHONGQING BIOMEAN TECH CO LTD, dated 2019)

Biological target: T1, 重组人NT-proBNP (recombinant human N-terminal pro-brain natriuretic peptide, bought from 重庆探生科技有限公司) (human, UniProt P16860 27-102)
T1 construct: also called NT-proBNP校准品; 人脑钠肽原N端肽
T1 sequence (looked up): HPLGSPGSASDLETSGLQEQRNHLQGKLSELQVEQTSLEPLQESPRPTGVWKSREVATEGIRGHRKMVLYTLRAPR
Experiment: phage ELISA, NT-proBNP coated, HRP anti-phage antibody, A450

B1: 人NT-proBNP特异性羊单链抗体scFv, displayed on phage (clone of the third round of panning) (scFv)
scFv: MALSQVRLQESGPSLVKPSQTLSLTCTVSGPSLTDYDVDWVRQAPGKALEWLGFINQGAPTGYDPALKSRLSITRDTSKSQVSLSLSSMTAEDTAVYYCARGAILGWGRGLLVTVSSQGSTSGSGKPGSGEGSTKGGQAVLTQPASVSGSPGQTVTISCTGTSGDIAGYNLVGWYQQLPNSAPKTLIYDVSTRRSGIPARFSGSKSGNTATLTISGLQAEDEADYYCSTSISANSVGFGSGTRLTVLGQPKSAPS
notes: The phage coat fusion partner is not described; also called 单克隆噬菌体
- binding result: binds
